{"source": "patent US20210072252A1", "about": "(WASHINGTON UNIVERSITY, published 2021)", "binders": {"B1": {"name": "GluNAAB (enzyme)", "chain": "IKTRFAPSPTGYLHVGGARTALYSWLFARNHGGEFVLRIEDTDLERSTPEAIEAIMDGMNWLSLEWDEGPYYQTKRFDRYNAVIDQMLEEGTAYKCYCSKERLEALREEQMAKGEKPRYDGRCRHSHEHHADDEPCVVRFANPQEGSVVFDDQIRGPIEFSNQELDDLIIRRTDGSPTYNFCVVVDDWDMEITHVIRGEDHINNTPRQINILKALNAPVPVYAHVSMINGDDGKKLSKRHGAVSVMQYRDDGYLPEALLNYLVRLGWSHGDQEIFTREEMIKYFTLNAVSKSASAFNTDKLLWLNHHYI", "notes": "also called Glutamate"}, "B2": {"name": "LysNAAB (enzyme)", "chain": "ANDKSRQTFVVRSKILAAIRQFMVARGFMEVETPMMQVIPGGASARPFITHHNALDLDMYLRIAPELYLKRLVVGGFERVFEINRNFRNEGISVRHNPEFTMMELYMAYADYHDLIELTESLFRTLAQEVLGTTKVTYGEHVFDFGKPFEKLTMREAIKKYRPETDMADLDNFDAAKALAESIGITVEKSWGLGRIVTEIFDEVAEAHLIQPTFITEYPAEVSPLARRNDVNPEITDRFEFFIGGREIGNGFSELNDAEDQAERFQEQVNAKAAGDDEAMFYDEDYVTALEYGLPPTAGLGIGIDRMIMLFTNSHTIRDVILFPAMRP", "notes": "Purified on GSTrap; also called Lysine"}, "B3": {"name": "SerNAAB (enzyme)", "chain": "MLDPNLLRNEPDAVAEKLARRGFKLDVDKLGALEERRKVLQVKTENLQAERNSRSKSIGQAKARGEDIEPLRLEVNKLGEELDAAKAELDALQAEIRDIALTIPNLPADEVPVGKDENDNVEVSRWGTPREFDFEVRDHVTLGEMYSGLDFAAAVKLTGSRFVVMKGQIARMHRALSQFMLDLHTEQHGYSENYVPYLVNQDTLYGTGQLPKFAGDLFHTRPLEEEADTSNYALIPTAEVPLTNLVRGEIIDEDDLPIKMTAHTPCFRSEAGSYGRDTRGLIRMHQFDKVEMVQIVRPEDSMAALEEMTGHAEKVLQLLGLPYRKIILCTGDMGFGACKTYDLEVWIPAQNTYREISSCSNVWDFQARRMQARCRSKSDKKTRLVHTLNGSGLAVGRTLVAVMENYQQADGRIEVPEVLRPYMNGLEYI", "notes": "Purified on GSTrap; also called Serine"}, "B4": {"name": "Met NAAB (as used in biolayer interferometry) (designed binder)", "chain": "AKKILVTCASPYANGSIHLGHMLEHIQADVWVRYQRMRGHEVNFICADDAHGTPIMLKAQQLGITPEQMIGEMSQEHQTDFAGFNISYDNYHSTHSEENRQLSELIYSRLKENGFIKNRTISQLYDPEKGMFLPDRFVKGTCPKCKSPDQYGDNCEVCGATYSPTELIEPKSVVSGATPVMRDSEHFFFDLPSFSEMLQAWTRSGALQEQVANKMQEWFESGLQQWDISRDAPYFGFEIPNAPGKYFYVWLDAPIGLMGSFKNLCDKRGDSVSFDEYWKKDSTAELYHFIGKGIVYFLSLFWPAMLEGSNFRKPSNLFVHGYVTVNGAKMSKSRGTFIKASTWLNHFDADSLRYYYTAKLSSRIDDIDLNLEDFVQRVNADIVNKVVNLASRNAGFINKRFDGVLASELADPQLYKTFTDAAEVIGEAWESREFGKAVREIMALADLANRYVDEQAPWVVAKQEGRDADLQAICSMGINLFRVLMTYLKPVLPKLTERAEAFLNTELTWDGIQQPLLGHKVNPFKALYNRIDMRQVEALVEASK", "notes": "Same engineered MetRS fragment as m5, here without stated Cy5 label; also called Methionine"}, "B5": {"name": "ThreNAAB (enzyme)", "chain": "RDHRKIGKQLDLYHMQEEAPGMVFWHNDGWTIFRELEVFVRSKLKEYQYQEVKGPFMMDRVLWEKTGHWDNYKDAMFTTSSENREYCIKPMNCPGHVQIFNQGLKSYRDLPLRMAEFGSCHRNEPSGSLHGLGRVRGFTQDDAHIFCTEEQIRDEVNGCIRLVYDMYSTFGFEKIVVKLSTRPEKRIGSDEMWDRAEADLAVALEENNIPFEYQLGEGAFYGPKIEFTLYDCLDRAAQCGTVQLDFSLPSRLSASYVGEDNERKVPVMIHRAILGSMEVFIGILTEEFAGFFPTWLAPVQVVIMNITDSQSEYVNELTQKLSNAGIRVKADLRNEKIGFKIREHTLRRVPYMLVCGDKEVESGKVAVRTRRGKDLGSMDVNEVIEKLQQEIRSRSLKQLEE", "notes": "Purified on GSTrap; also called Threonine"}, "B6": {"name": "IleNAAB (enzyme)", "chain": "FPMRGDLAKREPGMLARWTDDDLYGIIRAAKKGKKTFILHDGPPYANGSIHIGHSVNKILKDIIIKSKGLSGYDSPYVPGWDCHGLPIELKVEQEYGKPGEKFTAAEFRAKCREYAATQVDGQRKDFIRLGVLGDWSHPYLTMDFKTEANIIRALGKIIGNGHLHKGAKPVHWCVDCRSALAEAEVEYYDKTSPSIVAFQAVDQDALKTKFGVSNVNGPISLVIWTTTPWTLPANRAISIAPDFDYALVQIDGQAVILAKDLVESMQRIGVSDYTILGTVKGAELELLRFTHPFMDFDVPAILGDHVTLDAGTGAVHTAPGHGPDDYVIGQKYGLETANPVGPDGTYLPGTYPTLDGVNVFKANDIVVALLQEKGALLHVEKMQHSYPCCWRHKTPIIFRATPQWFVSMDQKGLRAQSLKEIKGVQWIPDWGQARIESMVANRPDWCISRQRTWGVPMSLFVHKDTEELHPRTLELMEEVAKRVEVDGIQAWWDLDAKEILGDEADQYVKVPDTLDVWFDSGSTHSSVVDVRPEFAGHAADMYLEGSDQHRGWFMSSLMISTAMKGKAPYRQVLTHGFTVDGQGRKMSKSIGNTVSPQDVMNKLGADILRLWVASTDYTGEMAVSDEILKRAADSYRRIRNTARFLLANLNGFDPAKDMVKPEEMVVLDRWAVGCAKAAQEDILKAYEAYDFHEVVQRLMRFCSVEMGSFYLDIIKDRQYTAKADSVARRSCQTALYHIAEALVRWMAPILSFTADEVWGYLPGERE", "notes": "Purified on GSTrap; also called Isoleucine"}, "B7": {"name": "ArgNAAB (enzyme)", "chain": "EKQTIVVDYSAPNVAKEMHVGHLRSTIIGDAAVRTLEFLGHKVIRANHVGDWGTQFGMLIAWLEKQQQENAGEMELADLEGFYRDAKKHYDEDEEFAERARNYVVKLQSGDEYFREMWRKLVDITMTQNQITYDRLNVTLTRDDVMGESLYNPMLPGIVADLKAKGLAVESEGATVVFLDEFKNKEGEPMGVIIQKKDGGYLYTTTDIACAKYRYESLHADRVLYYIDSRQHQHLMQAWAIVRKAGYVPESVPLEHHMFGMMLGKDGKPFKTRAGGTVKLADLLDETLERARRLVAEKNPDMPADELEKLANAVGIGAVKYADLSKNRTTDYIFDWDNMLAFEGNTAPYMQYAYTRVLSVFRKAEINEEQLAAAPVIIREDREAQLAARLLQFEETLTVVAREGTPHVMCAYLYDLAGLFSGFYEHCPILSAENEEVRNSRLKLAQLTAKTLKLGLDTLGIETVERM", "notes": "Purified on GSTrap; also called Arginine"}, "B8": {"name": "AsnNAAB (enzyme)", "chain": "SIEYLREVAHLRPRTNLIGAVARVRHTLAQALHRFFNEQGFFWVSTPLITASDTEGAGEMFRVSTLDLENLPRNDQGKVDFDKDFFGKESFLTVSGQLNGETYACALSKIYTFGPTFRAENSNTSRHLAEFWMLEPEVAFANLNDIAGLAEAMLKYVFKAVLEERADDMKFFAERVDKDAVSRLERFIEADFAQVDYTDAVTILENCGRKFENPVYWGVDLSSEHERYLAEEHFKAPVVVKNYPKDIKAFYMRLNEDGKTVAAMDVLAPGIGEIIGGSQREERLDVLDERMLEMGLNKEDYWWYRDLRRYGTVPHSGFGLGFERLIAYVTGVQNVRDVIPFPRTP", "notes": "Purified on GSTrap; also called Asparagine"}, "B9": {"name": "eLAP, engineered leucine-specific aminopeptidase (NAAB for N-terminal leucine) (designed binder)", "chain": "MAISIKTPEDIEKMRVAGRLAAEVLEMIEPYVKPGVSTGELERICWDYIVNEQHATDSLTGHNGIDGHGSISINEVVCHGVPDDAKLLKDGDIVNIDVTVRKDGFHGDTSKMFIVGKPTIMGERLCRITQESLYLALRMVKPGINLREIGAAIQKFVEAEGFSVVREYCGHGIGRGHHEEPQVLHYDSRETNVVLKPGMTFTIEPMVNAGKKEIRTMKDGSTVKTKDRSLSAQYEHTIVVTDNGCEILTLRKDDTIPAIISHDE", "modifications": "Cy5 fluorophore non-specifically on lysine side chains", "notes": "also called NAAB for leucine"}, "B10": {"name": "ValNAAB (enzyme)", "chain": "MEKTYNPQDIEQPLYEHWEKQGYFKPNGDESQESFCIMIPPPNVTGSLHMGHAFQQTIMDTMIRYQRMQGKNTLWQVGTDHAGIATQMVVERKIAAEEGKTRHDYGREAFIDKIWEWKAESGGTITRQMRRLGNSVDWERERFTMDEGLSNAVKEVFVRLYKEDLIYRGKRLVNWDPKLRTAISDLEVENRESKGSMWHIRYPLADGAKTADGKDYLVVATTRPETLLGDTGVAVNPEDPRYKDLIGKYVILPLVNRRIPIVGDEHADMEKGTGCVKITPAHDFNDYEVGKRHALPMINILTFDGDIRESAQVFDTKGNESDVYSSEIPAEFQKLERFAARKAVVAAIDALGLLEEIKPHDLTVPYGDRGGVVIEPMLTDQWYVRADVLAKPAVEAVENGDIQFVPKQYENMYFSWMRDIQDWCISRQLWWGHRIPAWYDEAGNVYVGRNEEEVRKENNLGADVALRQDEDVLDTWFSSALWTFSTLGWPENTDALRQFHPTSVMVSGFDIIFFWIARMIMMTMHFIKDENGKPQVPFHTVYMTGLIRDDEGQKMSKSKGNVIDPLDMVDGISLPELLEKRTGNMMQPQLADKIRKRTEKQFPNGIEPHGTDALRFTLAALASTGRDINWDMKRLEGYRNFCNKLWNASRFVLMNTEGQDCGFNGGEMTLSLADRWILAEFNQTIKAYREALDSFRFDIAAGILYEFTWNQFCDWYLELTKPVMNGGTEAELRGTRHTLVTVLEGLLRLAHPIIPFITETIWQ", "notes": "Purified on GSTrap; also called Valine"}, "B11": {"name": "GlnNAAB (enzyme)", "chain": "TNFIRQIIDEDLASGKHTTVHTRFPPEPNGYLHIGHAKSICLNFGIAQDYKGQCNLRFDDTNPVKEDIEYVESIKNDVEWLGFHWSGNVRYSSDYFDQLHAYAIELINKGLAYVDELTPEQIREYRGTLTQPGKNSPYRDRSVEENLALFEKMRTGGFEEGKACLRAKIDMASPFIVMRDPVLYRIKFAEHHQTGNKWCIYPMYDFTHCISDALEGITHSLCTLEFQDNRRLYDWVLDNITIPVHPRQYEFSR", "notes": "Purified on GSTrap; also called Glutamine"}}, "key": {"[1]": {"target": "peptide with N-terminal glutamate", "experiment": "biolayer interferometry (Blitz), peptide-coated sensor, NAAB in 1x PBS, 1:1 fit, kd/ka"}, "[2]": {"target": "peptide with N-terminal lysine", "experiment": "biolayer interferometry (Blitz), peptide-coated sensor, NAAB in 1x PBS, 1:1 fit, kd/ka"}, "[3]": {"target": "peptide with N-terminal serine", "experiment": "biolayer interferometry (Blitz), peptide-coated sensor, NAAB in 1x PBS, 1:1 fit, kd/ka"}, "[4]": {"target": "peptide with N-terminal methionine (biolayer interferometry)", "experiment": "biolayer interferometry (Blitz), peptide-coated sensor, NAAB in 1x PBS, 1:1 fit, kd/ka"}, "[5]": {"target": "peptide with N-terminal threonine", "experiment": "biolayer interferometry (Blitz), peptide-coated sensor, NAAB in 1x PBS, 1:1 fit, kd/ka"}, "[6]": {"target": "peptide with N-terminal isoleucine", "experiment": "biolayer interferometry (Blitz), peptide-coated sensor, NAAB in 1x PBS, 1:1 fit, kd/ka"}, "[7]": {"target": "peptide with N-terminal arginine", "experiment": "biolayer interferometry (Blitz), peptide-coated sensor, NAAB in 1x PBS, 1:1 fit, kd/ka"}, "[8]": {"target": "peptide with N-terminal asparagine", "experiment": "biolayer interferometry (Blitz), peptide-coated sensor, NAAB in 1x PBS, 1:1 fit, kd/ka"}, "[9]": {"target": "synthetic peptide with N-terminal leucine (Example 1, on nanogel surface)", "experiment": "single-molecule detection, TIRF microscopy; Cy5-labeled NAAB on peptide immobilized on nanogel; counts per field of view", "method": "The NAAB for N-terminal leucine amino acids was non-specifically labeled with Cy5 fluorophore on lysine side chains. […] An additional experiment was performed with no peptide added. The labeled NAAB was briefly incubated with the immobilized peptide, and unbound protein was removed by washing. Bound protein, which may be bound specifically to peptides or non-specifically to the surface, was imaged by total internal reflection fluorescence (TIRF) microscopy. Spots exceeding a detection threshold were deemed to indicate bound protein and were converted to a number of counts per field-of-view."}, "[10]": {"target": "peptide with N-terminal valine", "experiment": "biolayer interferometry (Blitz), peptide-coated sensor, NAAB in 1x PBS, 1:1 fit, kd/ka"}, "[11]": {"target": "peptide with N-terminal glutamine", "experiment": "biolayer interferometry (Blitz), peptide-coated sensor, NAAB in 1x PBS, 1:1 fit, kd/ka"}}}
{"binder": "B1", "values": [{"measurement": "Kd", "setting": "[1]", "result": 2120, "unit": "nM"}]}
{"binder": "B2", "values": [{"measurement": "Kd", "setting": "[2]", "result": 2610, "unit": "nM"}]}
{"binder": "B3", "values": [{"measurement": "Kd", "setting": "[3]", "result": 938, "unit": "nM"}]}
{"binder": "B4", "values": [{"measurement": "Kd", "setting": "[4]", "result": 1070, "unit": "nM"}]}
{"binder": "B5", "values": [{"measurement": "Kd", "setting": "[5]", "result": 1010, "unit": "nM"}]}
{"binder": "B6", "values": [{"measurement": "Kd", "setting": "[6]", "result": 3010, "unit": "nM"}]}
{"binder": "B7", "values": [{"measurement": "Kd", "setting": "[7]", "result": 129, "unit": "nM"}]}
{"binder": "B8", "values": [{"measurement": "Kd", "setting": "[8]", "result": 754, "unit": "nM"}]}
{"binder": "B9", "values": [{"measurement": "ratio of specific to non-specific binding", "setting": "[9]", "result": "~2 to 1"}]}
{"binder": "B10", "values": [{"measurement": "Kd", "setting": "[10]", "result": 1220, "unit": "nM"}]}
{"binder": "B11", "values": [{"measurement": "Kd", "setting": "[11]", "result": 531, "unit": "nM"}]}
